From patent publication US20210040201A1

Legend:
[1] = molecular target: Human TIGIT expressed on the surface of cells (human) (UniProt Q495A1); assay: flow cytometry competition against 50 nM human CD155-mouse IgG2a Fc on CHOS cells expressing human TIGIT; negative control
[2] = molecular target: Human TIGIT expressed on the surface of cells (human) (UniProt Q495A1); assay: flow cytometry competition against 50 nM human CD155-mouse IgG2a Fc on CHOS cells expressing human TIGIT; negative control (text says IgG4)
[3] = molecular target: Human TIGIT expressed on the surface of cells (human) (UniProt Q495A1); assay: cell-based or functional assay
[4] = molecular target: Human TIGIT expressed on the surface of cells (human) (UniProt Q495A1); assay: flow cytometry competition with 50 nM human CD155-mouse IgG2a Fc on CHOS cells overexpressing human TIGIT; fit value of the flat negative-control curve; the row of the drawn table is headed EC50, the text calls the values IC50
[5] = molecular target: Human TIGIT expressed on the surface of cells (human) (UniProt Q495A1); assay: flow cytometry, antibody titrated on CHO cells expressing human TIGIT, median fluorescence intensity; fit value of the flat negative-control curve in the table under the graph

Chain of Human TIGIT expressed on the surface of cells (human) (Q495A1 22-244 limits assumed): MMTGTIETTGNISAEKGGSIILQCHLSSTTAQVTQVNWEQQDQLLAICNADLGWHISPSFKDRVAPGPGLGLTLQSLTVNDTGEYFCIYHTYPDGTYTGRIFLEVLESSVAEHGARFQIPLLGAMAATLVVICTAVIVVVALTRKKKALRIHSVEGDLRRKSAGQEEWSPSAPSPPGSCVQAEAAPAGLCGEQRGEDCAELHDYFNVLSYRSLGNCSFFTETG

| IC50 [1] [nM] | IC50 [2] [nM] | EC50, MOA-based assay (luciferase reporter under IL2 promoter) [3] [nM] | IC50 [4] [nM] | EC50 [5] [nM] | Substance |
| --- | --- | --- | --- | --- | --- |
| 0.039 | 1.15 | 273 |  |  | IgG1 (negative control) (antibody) |
|  |  |  | 1.15 | 53200 | IgG4 (antibody) |
